Experimental data as given in US8975044B2, “Polynucleotides encoding for frizzled-binding agents and uses thereof” (OncoMed Pharmaceuticals, Inc., priority 2008, dated 2015).

Tests used:
[1] = test system: OMP-C28 tumors; assay: Flow cytometry of ESA and CD44 on cells of treated OMP-C28 tumors; format: in vivo, NOD/SCID mice; details: tumors harvested day 48; control antibody 64%
Procedure: Control and treated tumors from the OMP-C28 xenograft study described above (Example 7) were harvested at the end of the study (day 48). The tumors were processed and dissociated into single cells. Tumor cells were then incubated with biotinylated mouse antibodies (α-mouse CD45-biotin 1:200 dilution and rat α-mouse H2 Kd-biotin 1:100 dilution, BioLegend, San Diego, Calif.) on ice for 30 min followed by addition of streptavidin-labeled magnetic beads (Invitrogen, Carlsbad, Calif.) to remove mouse cells with the aid of a magnet.
For analysis of cell surface markers, the single tumor cell suspension was stained with anti-ESA (Biomeda) and anti-CD44 (BD Biosciences) antibodies which were directly conjugated to fluorochromes. Dead cells were excluded by using the viability dye DAPI. Flow cytometry was performed using a FACS Aria (Becton Dickinson). Side scatter and forward scatter profiles were used to eliminate cell clumps.

[2] = test system: OMP-Pn4 tumors; assay: Limiting dilution assay of cancer stem cell frequency in treated OMP-Pn4 tumors; format: in vivo, NOD/SCID mice; details: tumors after 41 days treatment; 30-810 cells re-injected, 75 days; L-Calc
Procedure: Control and treated tumors from the OMP-Pn4 xenograft study described above (Example 7) were harvested at the end of 41 days treatment. The tumors were processed and dissociated into single cells. Tumor cells were then incubated with biotinylated mouse antibodies (α-mouse CD45-biotin 1:200 dilution and rat α-mouse H2 Kd-biotin 1:100 dilution, BioLegend, San Diego, Calif.) on ice for 30 min followed by addition of streptavidin-labeled magnetic beads (Invitrogen, Carlsbad, Calif.) to remove mouse cells. The remaining human cells in the suspension were collected, counted and diluted to appropriate cell doses (30, 90, 270 and 810 cells), mixed in the mixture of 1:1 (v/v) FACS buffer and Matrigel and injected subcutaneously in NOD/SCID mice (10 mice per cell dose per treatment group). Each dot in FIG. 40 represents the tumor volume of an individual mouse. The percentage of mice with detectable tumors was determined in all groups injected with anti-FZD antibody treated tumor cells and compared to the percentage of mice with detectable tumors in the controls. For example, the number of mice injected with 810 control-treated tumor cells that have detectable tumors was determined and compared to the number of mice injected with 810 FZD-antibody treated tumor cells that have detectable tumors. […]

[3] = test system: PN4 tumors; assay: Alcian blue staining of treated PN4 tumor sections; format: in vivo, mice; details: relative to controls and the gemcitabine alone group; data not shown
Source text: Another characteristic of endocrine, secretory or ductal cells is the production of mucin and these cells can be detected by alcian blue staining (van Es et al. 2005. Nature 435 959-63). It was observed during harvesting and processing of tumors that the 18R5 treated tumors were much more mucinous than control treated tumors. Therefore, PN4 tumors sections from mice treated with control antibody, gemcitabine alone, 18R5 alone, or 18R5 plus gemcitabine were stained with alcian blue.

[4] = test system: smooth muscle actin (SMA); assay: Smooth Muscle Actin alpha immunofluorescence on treated OMP-PN4 tumors; format: in vivo, NOD/SCID mice; details: 10 mg/kg once a week for 6 weeks; vs control mAb
Procedure: As described in Example 7 above, OMP-PN4 tumor-bearing NOD/SCID mice were treated with control Ab (LZ-1), 18R5, gemcitabine, or the combination of 18R5 and gemcitabine once a week for 6 weeks. The antibodies were administered at a concentration of 10 mg/kg. After they were harvested, the tumors from that experiment were analyzed for the expression of Wnt target genes at both the RNA and protein levels, using microarray and IHC, respectively.
In preparation for Smooth Muscle Actin alpha (SMAa) immunofluorescence, tumor tissue was frozen using OCT. 4 micron sections were obtained and stored frozen at −80° C. For SMAa staining, tissue was fixed using chilled acetone at −20° C. for 15 minutes and then allowed to dry and come to room temperature and then marked using a hydrophobic PAP pen. Slides were then washed using phosphate buffered saline (PBS). Tissue was blocked using normal horse serum R.T.U. (Vector Labs) for 2 hours at room temperature. Primary antibody staining was performed with 1:10,000 dilution of FITC-conjugated Smooth muscle actin alpha antibody (cline 1A4, #F3777, SIGMA) for 1 hour. Sections were washed 3 times using PBS containing 0.1% triton X-100. Slides were then air-dried and then mounted using Hard set mounting medium containing DAPI (vectashied H-500).

[5] = test system: Wnt signaling; assay: 8xTCF luciferase reporter assay in STF293 cells with Wnt-overexpressing HEK293 cells; format: cell-based, human; details: 20 μg/ml; Wnt1, Wnt2, Wnt3, Wnt7A, Wnt7B, Wnt10B, Wnt3A inhibited; 18 hours
Procedure: In further experiments, the ability of the 18R8 antibody to antagonize signaling by different Wnt ligands was determined. HEK 293 cells were transfected with Wntl, Wnt2, Wnt2b2, Wnt3, Wnt3a, Wnt7a, Wnt7b, Wnt8a, Wnt9b, and Wnt10b for forty eight hours by Fugene 6 (Roche). Wnt3A conditioned medium (“WNT3ACM”) was used as a positive control of activation. STF293 cells, were cultured in DMEM supplemented with antibiotics and 10% FCS and treated with 20 μg/ml 18R8 antibody or no antibody. The Wnt-overexpressing HEK293 cells were then added. Eighteen hours following treatment, luciferase levels were measured using a dual luciferase assay kit.

[6] = target: T1, FZD8 binding to Wnt3A (Homo sapiens, UniProt Q9H461); assay: Blocking of FZD8-Fc binding to Wnt3A (protein A depletion, STF293 reporter readout); format: biochemical; details: co-incubation with FZD8-Fc and Wnt3A conditioned medium, 2 hrs at 4° C., protein A beads removed
T1 construct: amino acids 1-157 of FZD8 linked in-frame to human IgG1 Fc
T1 sequence (Q9H461 28-157): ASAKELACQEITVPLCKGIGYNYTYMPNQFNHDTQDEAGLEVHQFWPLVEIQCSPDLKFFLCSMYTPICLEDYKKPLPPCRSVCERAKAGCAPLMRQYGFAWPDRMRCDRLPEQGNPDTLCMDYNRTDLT
Procedure: To assess the ability of 18R8 to block the binding of FZD to Wnt, 2 μl of 1.32 μg/μl soluble FZD8-Fc containing the Fri domain (amino acids 1-157 of FZD8 linked in-frame to human IgG1 Fc) was added to culture medium to bind Wnt3A (added as 20 μl of Wnt3A conditioned medium) either alone or in the presence of the 18R8 IgG antibody (added as 4 μl of 3.71 μg/μl). The mixtures were incubated either alone or in the presence of Protein A sepharose beads (GE Healthcare products; 20 μl of 50% solution in PBS) for two hrs at 4° C. After the incubation, the protein A beads (and any proteins complexed to the protein A beads) in each sample were removed by spinning and the supernatant was assayed for ability to induce 8×TCF luciferase activity. The supernatant was added to STF293 cells, which stably express 8×TCF (eight copies of the TCF-binding domain upstream of a firefly luciferase reporter gene) to measure canonical Wnt signaling levels and which were cultured in DMEM supplemented with antibiotics and 10% FCS. Eighteen hours following treatment of the STF293 cells, luciferase levels were measured using a dual luciferase assay kit (Promega; Madison, Wis.).

B1: 18R5: human anti-FZD antibody; VH SEQ ID NO:10 (as 18R8), VL SEQ ID NO:14; binds FZD1, 2, 5, 7, 8 (antibody, V domains shown)
VH: EVQLVESGGGLVQPGGSLRLSCAASGFTFSHYTLSWVRQAPGKGLEWVSVISGDGSYTYYADSVKGRFTISSDNSKNTLYLQMNSLRAEDTAVYYCARNFIKYVFANWGQGTLVTVSS
VL: DIELTQPPSVSVAPGQTARISCSGDNIGSFYVHWYQQKPGQAPVLVIYDKSNRPSGIPERFSGSNSGNTATLTISGTQAEDEADYYCQSYANTLSLVFGGGTKLTVLG
modifications: 18R5/18R8 heavy chain variable region (VH); 18R5 light chain variable region (VL)
bulk tumor population expressing both ESA and CD44 at high levels (double positive) [1]: 40% | cancer stem cell frequency [2]: reduced cancer stem cell frequency | alcian blue staining [3]: clear increase in alcian blue staining | Smooth Muscle Actin alpha (SMAa) amount [4]: Reduced amounts of SMAa

B2: 18R8: human anti-FZD antibody from phage display; VH SEQ ID NO:10, VL SEQ ID NO:12; binds FZD1, 2, 5, 7, 8 (antibody, V domains shown)
VH: B1 VH
VL: DIELTQPPSVSVAPGQTARISCSGDKLGKKYASWYQQKPGQAPVLVIYEKDNRPSGIPERFSGSNSGNTATLTISGTQAEDEADYYCSSFAGNSLEVFGGGTKLTVLG
modifications: 18R5/18R8 heavy chain variable region (VH); 18R8 light chain variable region (VL)
inhibition of signaling by different Wnt ligands [5]: inhibit signaling of a variety of Wnts | blocking of FZD8 binding to Wnt3A [6]: blocked the ability of FZD8 to bind to Wnt3A
